# Numbering of substitutions follows the chain as printed. Numbers in names are those of the source.
# B1: FadD13 mutant A302G, N-terminal 6x histidine tagged (enzyme)
# chain: MKNIGWMLRQRATVSPRLQAYVEPSTDVRMTYAQMNALANRCADVLTALGIAKGDRVALLMPNSVEFCCLFYGAAKLGAVAVPINTRLAAPEVSFILSDSGSKVVIYGAPSAPVIDAIRAQADPPGTVTDWIGADSLAERLRSAAADEPAVECGGDDNLFIMYTSGTTGHPKGVVHTHESVHSAASSWASTIDVRYRDRLLLPLPMFHVAALTTVIFSAMRGVTLISMPQFDATKVWSLIVEERVCIGGAVPAILNFMRQVPEFAELDAPDFRYFITGGAPMPEALIKIYAAKNIEVVQGYGLTESCGGGTLLLSEDALRKAGSAGRATMFTDVAVRGDDGVIREHGEGEVVIKSDILLKEYWNRPEATRDAFDNGWFRTGDIGEIDDEGYLYIKDRLKDMIISGGENVYPAEIESVIIGVPGVSEVAVIGLPDEKWGEIAAAIVVADQNEVSEQQIVEYCGTRLARYKLPKKVIFAEAIPRNPTGKILKTVLREQYSATVPK
# notes: not shown: His6, N-terminal, kept
# B2: FadD13 mutant D382A, N-terminal 6x histidine tagged (enzyme)
# chain: B1 chain with G302A, D382A
# notes: as for B1
# Target: the molecule itself
# Assay: native gel or EMSA
Protein,stoichiometry N,binding result
B1,2,–
B2,–,binds

# Reference: publication PMC2793005, “Dissecting the Role of Critical Residues and Substrate Preference of a Fatty Acyl-CoA Synthetase (FadD13) of Mycobacterium tuberculosis” (PLoS ONE, 2009)
